The RNAGym collection of RNA variant scans (doi:10.1073/pnas.2313332121)

B1: TPR t1 (parent)
chain: GACCAAUCUGCCCUCAGAGCUCGAGAACAUCUUCGGAUGCAGAGGAGGCAGGCUUCGGUGGCGCGAUAGCGCCAACGUCCUCAACCUCCAAUGCAUCCCACCACAUGAUGAUGCCUGAAGAGCCUUGGUUUUUUG

Variants of: B1
Assay: polymerase ribozyme fitness, log enrichment relative to wild type (log ratio); higher = more active; in vitro selection for triplet polymerase activity
Method in brief: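 Fitness measures genotype enrichment against wild-type enrichment on a logarithmic scale, with inverse-variance-weighted averaging of replicates. The logarithm is base 2, and genotypes were kept only with ≥10 input reads and ≥1 read per output in Illumina sequencing. The sequenced libraries came from one triplicate in vitro selection round, including frozen incubation at −7 °C, of PCR-built, transcribed mutant libraries of each subunit of a heterodimeric triplet polymerase ribozyme.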

Variant	polymerase ribozyme fitness (log ratio)
U9C G39A A41U C73G G120U	-0.71
U9A G120C	1.21
G10A U55C C70U	-0.798
G10A A27G G71A C86U	-3.87
U9A A90U U96C U106A G128C	-5.11
U9A A24C U59C A91U A111C	-6.66
G10A C11A A18C G42C G44A G60A C101A	-4.31
U9C A29G G58A A90U G110A	-4.22
U9G C22G C101A C115U	-3.13
G10C C11U C62G A84U A108G	-4.22
G10A C102A	-1.65
G10A A74G A91C C124G	-0.108
G10A A29G C62U G113A U130A	-3.56
U9G G44U G58A G60U C102U U106A U133C	-3.81
U9G C72G	-0.437
U9C C31U C56A A103U G120U	-6.8
U9C C70U	-0.0921
G10A C80U	-0.522
U9G C73U C82A A83C A118U G128A	-1.71
U9C A43C A46G	-1.4
U9G U87G	0.583

Variant	polymerase ribozyme fitness (log ratio)
U9G U87C	-0.367
G10A G19A	-0.895
U9C C12U C22G G45C C72G A100U	-4.47
U9C C62U C102U	-1.87
U9C G19U C70U	-3.94
U9G G48C G120A U130A G135U	-0.622
U9G C12A U14G G63U C99A G120C	-6.39
U9C C49A C123U	1.45
U9G G10U C12G A111G	0.61
U9G A26C U54A U55A C88U G93A	-6.29
G10A C20U G57U G113U	-2.28
C8U G93C C114U	-1.54
U9G G10U U14A C97U	-0.883
U9C C40G C101U	-0.436
U9A C73G	-0.255
U9C A111U A121C U126A U130G	-4.36
G10A A43U G57U U130C	-1.83
U9G G23U	-6.6
C8U U14C U78C U106A G120A	1.87
U9G A46U G48U C76U C124U	-1.24
U9G A18U C49A G93A G110C	-5.65

Variant	polymerase ribozyme fitness (log ratio)
U9A G51A U112A	-2.45
C8U U21C U87G G122A	-0.0757
U9C C15A G45C G57C U59A	0.541
G10A A27G C31G G107C	-2.98
G10A C13G A27U C72U A105U	-3.22
U9G C12G U33A G42A C72G G93A G110U U116A	-7.22
U9A C12G U87G C99U	-2.31
G10A C12U G71U U112A	1.43
U9G G48U G61U G135U	-1.68
U9G C72U C94A G110A G113U A121G	-6.14
U9G C82G	-0.102
G10A U33C	-4.02
C8U U9C A119U	0.976
U9A A37U A41G	0.164
U9A C56U C73U	0.233
U9G C99U C124A U131G	-3.14
G10A G71C	-0.717
U9C U21A C49G C101A	-1.26
C8U U14A G61A	-0.345
U9C U14A U21C A43C G117A A119G	-1.44
C8U G93C	0.0241

Variant	polymerase ribozyme fitness (log ratio)
U9C C82A U109G C124U U131C	-3.57
C8U G120U	1.14
U9G U78C C89U	-0.533
G10A G47C G51C U59G U81C C115A	-5.77
U9G G19U G44A G58C C64U A74G	-4.3
U9C U81A U116A G122U C124U	-0.783
U9G C34U U59A A103U	-5.76
U9C C13U A27U A46C G52A G113A	-6.07
U9C G42C C53A U55C U130G	-1.45
U9G U59G C88A A118U	0.424
U9G C12U C13G G47C C56U	-1.38
U9A A46U G63C C82G C86A	-1.25
U9A G36A G113A	-0.728
U9G G17A C56U A83U C89A C101A	-4.6
U9A G71A C73A C85A U116A	-3.81
U9G G39A	0.968
U9G G63U G120C	0.237
U9A A50U C102A	-1.91
U9G C20G G44C C72U C114G	-6.99
U9G C70U	-0.679
U9A C20A	-2.35
